Patent publication US20190359662A1

Columns and labels:
Test in all cases: cell-based or functional assay
[1] = target: hNav1.2 (human) (UniProt Q99250)
[2] = target: hNav1.5 (human) (UniProt Q14524)
[3] = target: hNav1.6 (human) (UniProt Q9UQD0)
[4] = target: hNav1.3 (human) (UniProt Q9NY46)
[5] = target: hNav1.8 (human) (UniProt Q9Y5Y9)
[6] = target: hNav1.1 (human) (UniProt P35498)
[7] = target: hNav1.4 (human) (UniProt P35499)

Chain of hNav1.2 (human) (Q99250 whole entry): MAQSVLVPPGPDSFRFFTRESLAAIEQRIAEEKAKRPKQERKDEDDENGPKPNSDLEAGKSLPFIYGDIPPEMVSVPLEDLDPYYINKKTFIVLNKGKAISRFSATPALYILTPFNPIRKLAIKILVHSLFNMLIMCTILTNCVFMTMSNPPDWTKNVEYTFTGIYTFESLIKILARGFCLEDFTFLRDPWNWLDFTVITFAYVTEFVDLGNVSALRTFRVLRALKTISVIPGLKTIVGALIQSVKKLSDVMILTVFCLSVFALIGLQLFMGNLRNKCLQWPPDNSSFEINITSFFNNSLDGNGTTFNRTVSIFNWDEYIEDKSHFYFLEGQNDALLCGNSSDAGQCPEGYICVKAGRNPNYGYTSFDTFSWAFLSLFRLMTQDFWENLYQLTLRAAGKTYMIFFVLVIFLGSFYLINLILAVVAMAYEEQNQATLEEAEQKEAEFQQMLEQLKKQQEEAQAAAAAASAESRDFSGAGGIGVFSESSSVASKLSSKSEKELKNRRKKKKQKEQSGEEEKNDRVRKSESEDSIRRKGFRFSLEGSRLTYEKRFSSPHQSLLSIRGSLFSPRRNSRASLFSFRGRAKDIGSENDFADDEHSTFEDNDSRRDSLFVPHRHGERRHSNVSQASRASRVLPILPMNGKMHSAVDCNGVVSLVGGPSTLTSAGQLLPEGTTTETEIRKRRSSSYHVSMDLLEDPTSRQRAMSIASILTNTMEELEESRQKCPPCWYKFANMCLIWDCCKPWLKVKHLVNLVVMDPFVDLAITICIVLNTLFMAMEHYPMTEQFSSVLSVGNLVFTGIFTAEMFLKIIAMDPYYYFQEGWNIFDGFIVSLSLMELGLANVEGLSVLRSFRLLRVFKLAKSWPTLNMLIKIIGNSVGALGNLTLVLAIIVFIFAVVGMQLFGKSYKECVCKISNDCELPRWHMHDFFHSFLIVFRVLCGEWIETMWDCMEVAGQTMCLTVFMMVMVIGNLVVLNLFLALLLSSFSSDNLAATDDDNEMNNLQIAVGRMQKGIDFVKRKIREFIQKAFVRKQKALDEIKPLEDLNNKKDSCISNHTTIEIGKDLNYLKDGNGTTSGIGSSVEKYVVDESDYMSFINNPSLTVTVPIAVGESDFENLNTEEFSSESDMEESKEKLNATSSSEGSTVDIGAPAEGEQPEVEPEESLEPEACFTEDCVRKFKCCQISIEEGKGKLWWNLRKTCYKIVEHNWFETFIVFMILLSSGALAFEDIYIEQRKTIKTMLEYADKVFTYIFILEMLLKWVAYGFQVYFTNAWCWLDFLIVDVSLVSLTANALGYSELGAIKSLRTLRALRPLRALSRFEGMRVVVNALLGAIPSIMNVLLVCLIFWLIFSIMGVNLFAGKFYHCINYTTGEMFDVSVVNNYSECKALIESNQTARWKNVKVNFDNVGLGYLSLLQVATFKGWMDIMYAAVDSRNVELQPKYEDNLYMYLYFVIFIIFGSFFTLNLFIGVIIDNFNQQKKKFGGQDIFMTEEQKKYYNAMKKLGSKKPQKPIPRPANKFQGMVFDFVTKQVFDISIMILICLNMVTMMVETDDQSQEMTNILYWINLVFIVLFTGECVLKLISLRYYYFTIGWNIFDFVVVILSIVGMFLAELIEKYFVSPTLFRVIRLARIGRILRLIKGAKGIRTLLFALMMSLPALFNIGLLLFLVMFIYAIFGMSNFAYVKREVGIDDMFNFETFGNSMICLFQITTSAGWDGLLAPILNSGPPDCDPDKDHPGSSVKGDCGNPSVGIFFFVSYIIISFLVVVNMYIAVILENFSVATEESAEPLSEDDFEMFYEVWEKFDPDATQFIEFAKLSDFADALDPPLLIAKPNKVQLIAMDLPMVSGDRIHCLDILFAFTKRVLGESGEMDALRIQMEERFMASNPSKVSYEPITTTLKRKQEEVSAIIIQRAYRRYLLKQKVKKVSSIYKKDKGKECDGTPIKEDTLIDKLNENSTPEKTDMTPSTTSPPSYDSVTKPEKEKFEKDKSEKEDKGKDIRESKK
Chain of hNav1.3 (human) (Q9NY46 whole entry): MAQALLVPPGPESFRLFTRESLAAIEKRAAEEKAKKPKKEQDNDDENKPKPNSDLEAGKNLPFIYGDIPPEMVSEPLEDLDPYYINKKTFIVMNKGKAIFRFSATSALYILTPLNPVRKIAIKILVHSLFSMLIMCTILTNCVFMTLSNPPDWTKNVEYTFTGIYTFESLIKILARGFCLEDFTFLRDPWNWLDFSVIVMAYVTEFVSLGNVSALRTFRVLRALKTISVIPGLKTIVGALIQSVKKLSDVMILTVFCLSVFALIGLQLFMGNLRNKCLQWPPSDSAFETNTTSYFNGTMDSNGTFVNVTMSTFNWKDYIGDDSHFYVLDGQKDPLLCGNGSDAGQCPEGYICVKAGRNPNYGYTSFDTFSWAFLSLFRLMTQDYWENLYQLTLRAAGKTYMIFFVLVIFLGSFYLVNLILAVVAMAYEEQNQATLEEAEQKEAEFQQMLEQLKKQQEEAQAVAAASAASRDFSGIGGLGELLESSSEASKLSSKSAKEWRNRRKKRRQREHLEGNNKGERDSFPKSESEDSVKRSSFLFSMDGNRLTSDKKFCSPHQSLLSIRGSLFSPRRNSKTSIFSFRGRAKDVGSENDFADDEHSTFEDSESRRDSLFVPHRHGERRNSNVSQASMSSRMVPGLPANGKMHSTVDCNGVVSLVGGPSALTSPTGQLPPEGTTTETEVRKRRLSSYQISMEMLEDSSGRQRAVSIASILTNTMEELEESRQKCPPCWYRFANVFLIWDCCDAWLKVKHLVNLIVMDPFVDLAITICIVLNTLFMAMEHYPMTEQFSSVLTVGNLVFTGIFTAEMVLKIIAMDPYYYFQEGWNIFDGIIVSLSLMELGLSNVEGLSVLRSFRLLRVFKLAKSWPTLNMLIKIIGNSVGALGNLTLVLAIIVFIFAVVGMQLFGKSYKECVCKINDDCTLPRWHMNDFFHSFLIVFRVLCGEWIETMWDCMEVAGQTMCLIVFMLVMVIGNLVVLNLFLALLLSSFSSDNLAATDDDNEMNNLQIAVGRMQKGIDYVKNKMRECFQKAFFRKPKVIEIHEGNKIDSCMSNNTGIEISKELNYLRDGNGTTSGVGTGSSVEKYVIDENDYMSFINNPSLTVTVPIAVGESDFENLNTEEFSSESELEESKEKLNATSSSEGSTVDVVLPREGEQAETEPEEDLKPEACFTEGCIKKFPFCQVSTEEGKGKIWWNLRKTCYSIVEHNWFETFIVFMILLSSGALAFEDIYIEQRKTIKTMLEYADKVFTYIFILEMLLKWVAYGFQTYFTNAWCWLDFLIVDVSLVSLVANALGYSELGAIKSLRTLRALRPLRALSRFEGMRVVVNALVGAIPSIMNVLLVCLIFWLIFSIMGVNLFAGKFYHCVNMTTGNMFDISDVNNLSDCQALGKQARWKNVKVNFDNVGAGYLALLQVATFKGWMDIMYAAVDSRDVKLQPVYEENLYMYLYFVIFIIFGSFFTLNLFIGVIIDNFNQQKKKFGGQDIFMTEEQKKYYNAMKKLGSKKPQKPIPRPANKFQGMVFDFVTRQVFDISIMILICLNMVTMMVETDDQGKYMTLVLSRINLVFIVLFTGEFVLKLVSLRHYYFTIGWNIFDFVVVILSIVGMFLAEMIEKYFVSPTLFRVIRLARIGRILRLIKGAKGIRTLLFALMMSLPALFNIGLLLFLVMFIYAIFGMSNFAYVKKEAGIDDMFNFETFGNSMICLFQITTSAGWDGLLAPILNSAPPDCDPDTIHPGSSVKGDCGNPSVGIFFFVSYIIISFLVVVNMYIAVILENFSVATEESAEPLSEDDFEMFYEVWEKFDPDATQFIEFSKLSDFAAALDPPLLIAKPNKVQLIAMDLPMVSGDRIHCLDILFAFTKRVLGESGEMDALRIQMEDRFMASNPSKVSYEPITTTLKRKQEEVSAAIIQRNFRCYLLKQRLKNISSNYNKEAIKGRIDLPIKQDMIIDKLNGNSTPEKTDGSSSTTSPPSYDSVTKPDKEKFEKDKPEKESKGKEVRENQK

Substance	IC50, membrane potential assay [1] [µM]	IC50, membrane potential assay [2] [µM]	IC50, membrane potential assay [3] [µM]	IC50, membrane potential assay [4] [µM]	IC50, membrane potential assay [5] [µM]	IC50, membrane potential assay [6] [µM]	IC50, membrane potential assay [7] [µM]
Ac-Pnc1a (peptide)	5	> 30	16	8	> 30	23	14
Pnc1a-CONH2 (peptide)	3	> 30	20	7	> 30	8	16
